Test results reported in PMC6598382.

Tests used:
[1] = substrate: C/C=C/COC(=O)c1cc(C)c(O)c(C)c1O; experiment: steady-state Michaelis-Menten kinetics; assay type: biochemical, Penicillium rubens
[2] = substrate: C/C=C/C=C/C(=O)c1cc(C)c(O)c(C)c1O; experiment: steady-state Michaelis-Menten kinetics; assay type: biochemical, Penicillium rubens; conditions: native substrate

B1: SorbC (Penicillium rubens Wisconsin 54-1255) (protein)
chain: MTRSANSPFEVAIVGGGITGLALAVGLLKRNVSFTIYERAENFGELGVGITFTPNAQRAMEALDPCVLQSFTNVASAPSGGTINFVDGVREQGSEDPRTSTAALLFQLHVKGGYKACRRCDFVDQIVQHIPKDCVQYRKWLDSIETDHESGRAVLKFRDGEIAHADVVIGCDGIRSQVRASMFGTDELCPRAQYSHQLGYRGMVPLAQATAVLGPEKTSSAVLHTGPGAFVLTIPLAEVHAMHIEAFIMDKEEWPEVQTSSDSKRYVLPATRNEATKAFAEFGPTVRSAVSMFPEKLEKWAVFDMLEAPVPTFAKGRVCLAGDAAHASTPNQGGGAGFGIEDALVLAEVLAVLAEAPNVSGIVASEALAVYSEVRYERSQWLVRSSRRTGELCTWKDRDWGLAAEELSRDIISRSHQLWDHDTAGMVSDALAILGERVRGADTAF
- Km [1]: 17.3 ± 0.7 µM
- Km [2]: 38.6 ± 1.7 µM
